Laboratory results: paper PMC7739268 (Journal of molecular biology, 2016)
Like-named read-outs stand apart in the source and are kept apart here. Each block holds one molecule with its values, some of them ahead of it.

B1: Recombinant human BMP-6 (ligand, UniProt P22004 375-513, looked up)
chain: SASSRRRQQSRNRSTQSQDVARVSSASDYNSSELKTACRKHELYVSFQDLGWQDWIIAPKGYAANYCDGECSFPLNAHMNATNHAIVQTLVHLMNPEYVPKPCCAPTKLNAISVLYFDDNSNVILKKYRNMVVRACGCH
B2: BMPRII-Fc (Fc fusion, human, UniProt Q13873 27-136, looked up)
chain: SQNQERLCAFKDPYQQDLGIGESRISHENGTILCSKGSTCYGLWEKSKGDINLVKQGCWSHIGDPQECHYEECVVTTTPPSIQNGTYRFCCCSTDLCNVNFTENFPPPDT
B5: Recombinant human Activin B (ligand, UniProt P09529 293-407, looked up)
chain: GLECDGRTNLCCRQQFFIDFRLIGWNDWIIAPTGYYGNYCEGSCPAYLAGVPGSASSFHTAVVNQYRMRGLNPGTVNSCCIPTKLSTMSMLYFDDEYNIVKRDVPNMIVEECGCA

How the values were obtained:
[1] = molecular target: short-form Cerberus, Fc free (CerS) (human) (UniProt O95813); assay: cross-linking
[2] = molecular target: Recombinant human Activin B (human) (UniProt P09529); assay: SPR
[3] = molecular target: Recombinant human Activin B (human) (UniProt P09529); assay: SPR; remark: listed apart in the source
[4] = molecular target: short-form Cerberus Fc fusion protein (CerS-Fc) (human) (UniProt O95813); assay: SPR
[5] = molecular target: T1, wild-type Cerberus Fc fusion protein (wtCer-Fc) (human, UniProt O95813 18-267); assay: SPR
T1 sequence (looked up): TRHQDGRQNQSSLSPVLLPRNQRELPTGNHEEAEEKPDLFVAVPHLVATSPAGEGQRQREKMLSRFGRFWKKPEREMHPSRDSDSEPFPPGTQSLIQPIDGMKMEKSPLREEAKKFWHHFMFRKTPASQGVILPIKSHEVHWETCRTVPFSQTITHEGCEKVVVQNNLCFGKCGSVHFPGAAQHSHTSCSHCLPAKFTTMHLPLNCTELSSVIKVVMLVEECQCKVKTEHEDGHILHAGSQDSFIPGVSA

[6] = molecular target: T2, mutant Cerberus Fc fusion protein (mutCer-Fc) (human, UniProt O95813 18-267, Arg82Gly | Cys206Ala); assay: SPR
T2 sequence (looked up): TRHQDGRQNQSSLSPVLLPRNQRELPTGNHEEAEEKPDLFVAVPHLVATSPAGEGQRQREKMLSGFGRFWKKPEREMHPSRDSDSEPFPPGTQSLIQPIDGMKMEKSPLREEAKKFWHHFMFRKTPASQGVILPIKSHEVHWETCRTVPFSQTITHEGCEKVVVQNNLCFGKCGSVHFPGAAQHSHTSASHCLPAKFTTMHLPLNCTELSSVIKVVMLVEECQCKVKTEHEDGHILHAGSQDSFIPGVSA

[7] = molecular target: B5; assay: SPR
Recombinant human BMP-6 [8] = molecular target: B1; assay: SPR
BMPRII-Fc = molecular target: B2; assay: SPR
[9] = molecular target: B5; assay: SPR; remark: listed apart in the source
Recombinant human BMP-6 [10] = molecular target: B1; assay: SPR; remark: listed apart in the source
[11] = molecular target: B5; assay: SPR; remark: listed apart in the source
Recombinant human BMP-6 [12] = molecular target: B1; assay: SPR; remark: listed apart in the source
SEC = molecular target: the molecule itself; assay: SEC

stoichiometry N [1]: 2
IC50 [2]: 28.4 nM
IC50 [3]: 261 nM
percent reduction of Activin B binding to ActRIIA at 50 nM [3]: 10%
Molecule: short-form Cerberus, Fc free (CerS) (from UniProt O95813 18-267) (domain or fragment)

Kd [4]: 15.6 nM
koff [4]: 0.0021 s⁻¹
kon [4]: 140000 M⁻¹ s⁻¹
Molecule: Recombinant human BMP-7 (from UniProt P18075 293-431) (ligand)

Kd [4]: 15.2 nM
koff [4]: 0.0012 s⁻¹
Molecule: Recombinant human BMP-6 (from UniProt P22004 375-513) (ligand)

Molecule: B1
Kd [5]: 19.1 ± 2.5 nM
koff [5]: 0.0011 s⁻¹
kon [5]: 55000 M⁻¹ s⁻¹
Kd [6]: 14.7 ± 3.6 nM
koff [6]: 0.001 s⁻¹
kon [6]: 70000 M⁻¹ s⁻¹

Molecule: B2
binding result [7]: binds
binding result (Recombinant human BMP-6 [8]): binds

binding result (BMPRII-Fc): binds
B3: Recombinant human Nodal (ligand, UniProt Q96S42 238-347, looked up)
chain: HHLPDRSQLCRKVKFQVDFNLIGWGSWIIYPKQYNAYRCEGECPNPVGEEFHPTNHAYIQSLLKRYQPHRVPSTCCAPVKTKPLSMLYVDNGRVLLDHHKDMIVEECGCL

Kd [5]: 17.3 ± 0.8 nM
koff [5]: 0.0028 s⁻¹
kon [5]: 160000 M⁻¹ s⁻¹
Kd [6]: 9.8 ± 0.9 nM
koff [6]: 0.0012 s⁻¹
kon [6]: 130000 M⁻¹ s⁻¹
B4: Recombinant human BMP-7 (ligand, UniProt P18075 293-431, looked up)
chain: STGSKQRSQNRSKTPKNQEALRMANVAENSSSDQRQACKKHELYVSFRDLGWQDWIIAPEGYAAYYCEGECAFPLNSYMNATNHAIVQTLVHFINPETVPKPCCAPTQLNAISVLYFDDSSNVILKKYRNMVVRACGCH

Molecule: B5
Kd [5]: 0.096 ± 0.01 nM
koff [5]: 0.00022 s⁻¹
kon [5]: 2.3e+06 M⁻¹ s⁻¹
Kd [6]: 0.016 ± 0.003 nM
koff [6]: 3.1e-05 s⁻¹
kon [6]: 2e+06 M⁻¹ s⁻¹

IC50 [9]: 14.9 ± 4.2 nM
IC50 (Recombinant human BMP-6 [10]): 156 ± 9.2 nM
IC50 [11]: 26.2 ± 1.7 nM
IC50 (Recombinant human BMP-6 [12]): 319 ± 53.4 nM
B6: wild-type Cerberus, Fc free (wtCer) (natural protein, human, UniProt O95813 18-267, looked up)
chain: TRHQDGRQNQSSLSPVLLPRNQRELPTGNHEEAEEKPDLFVAVPHLVATSPAGEGQRQREKMLSRFGRFWKKPEREMHPSRDSDSEPFPPGTQSLIQPIDGMKMEKSPLREEAKKFWHHFMFRKTPASQGVILPIKSHEVHWETCRTVPFSQTITHEGCEKVVVQNNLCFGKCGSVHFPGAAQHSHTSCSHCLPAKFTTMHLPLNCTELSSVIKVVMLVEECQCKVKTEHEDGHILHAGSQDSFIPGVSA

IC50 [9]: 7.4 ± 1.1 nM
IC50 (Recombinant human BMP-6 [10]): 48.3 ± 3.5 nM
IC50 [11]: 40.1 ± 2.5 nM
IC50 (Recombinant human BMP-6 [12]): 350 ± 96.1 nM
B7: mutant Cerberus, Fc free (mutCer) (natural protein, human, UniProt O95813 18-267, looked up)
chain: TRHQDGRQNQSSLSPVLLPRNQRELPTGNHEEAEEKPDLFVAVPHLVATSPAGEGQRQREKMLSGFGRFWKKPEREMHPSRDSDSEPFPPGTQSLIQPIDGMKMEKSPLREEAKKFWHHFMFRKTPASQGVILPIKSHEVHWETCRTVPFSQTITHEGCEKVVVQNNLCFGKCGSVHFPGAAQHSHTSASHCLPAKFTTMHLPLNCTELSSVIKVVMLVEECQCKVKTEHEDGHILHAGSQDSFIPGVSA
stoichiometry N (SEC): 2
